This is an account of results in patent US20220251236A1 (Boehringer Ingelheim, published 2022).

Test [1] deals with T1, Human CD3 E+G HuFc-6xHis (human).
T1 construct: also called hu CD3εγ-Fc
In words: SPR (ProteOn XPR36), HuCD3E_HuCD3G-Fc amine-coupled, bispecific as analyte, Example 4B. The essentials: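 SPR kinetics with the bispecific constructs flowed as analyte over a directly amine-coupled (pH 4.5 acetate) human CD3εγ-Fc surface. Association runs 600 s and dissociation 1800 s, at 30 μl/min in PBS-T-EDTA.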

Test [2] concerns the target T2, EGF1+2.
T2 construct: also called Hu DLL3 EGF1+2 on HEK293 cells
T2 membrane-anchored DLL3 subdomain construct: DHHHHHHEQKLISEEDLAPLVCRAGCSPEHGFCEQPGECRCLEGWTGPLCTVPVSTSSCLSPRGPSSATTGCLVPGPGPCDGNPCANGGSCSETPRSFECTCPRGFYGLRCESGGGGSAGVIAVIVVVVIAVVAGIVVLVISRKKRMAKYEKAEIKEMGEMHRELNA
The test can be described thus: flow cytometry on HEK293 cells expressing the DLL3 subdomain construct, PE anti-human secondary, control: secondary antibody only. The essentials: (§1)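 Binders tested on HEK293 cells displaying the DLL3 subdomain construct; bound molecules detected by flow cytometry using PE-conjugated anti-human secondary antibody. Negative control: cells with secondary antibody only.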
For orientation: A flow cytometer gives signals particle by particle.

Test [3] concerns the target T3, EGF2+3.
T3 construct: also called Hu DLL3 EGF2+3 on HEK293 cells
T3 membrane-anchored DLL3 subdomain construct: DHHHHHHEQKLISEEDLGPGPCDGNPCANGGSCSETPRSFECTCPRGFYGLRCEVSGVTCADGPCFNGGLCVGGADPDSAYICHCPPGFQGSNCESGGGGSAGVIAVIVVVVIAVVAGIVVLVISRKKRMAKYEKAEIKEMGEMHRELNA
The test is described as above. The essentials:
as §1

Test [4] deals with T4, EGF3+4.
T4 construct: also called Hu DLL3 EGF3+4 on HEK293 cells
T4 membrane-anchored DLL3 subdomain construct: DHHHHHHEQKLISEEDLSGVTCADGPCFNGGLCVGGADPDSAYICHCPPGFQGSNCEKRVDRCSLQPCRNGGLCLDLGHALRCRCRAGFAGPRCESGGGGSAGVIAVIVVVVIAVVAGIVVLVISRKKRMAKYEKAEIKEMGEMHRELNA
The test is described as above. The method, boiled down:
as §1

For test [5], the target named is T5, EGF4+5.
T5 construct: also called Hu DLL3 EGF4+5 on HEK293 cells
T5 membrane-anchored DLL3 subdomain construct: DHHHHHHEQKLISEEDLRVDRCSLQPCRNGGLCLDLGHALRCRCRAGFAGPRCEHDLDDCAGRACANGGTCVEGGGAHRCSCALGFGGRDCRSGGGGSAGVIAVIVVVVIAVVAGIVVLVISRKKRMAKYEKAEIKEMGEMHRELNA
Described as above. The method, boiled down: as §1

Test [6] deals with T6, EGF5+6.
T6 construct: also called Hu DLL3 EGF5+6 on HEK293 cells
T6 membrane-anchored DLL3 subdomain construct: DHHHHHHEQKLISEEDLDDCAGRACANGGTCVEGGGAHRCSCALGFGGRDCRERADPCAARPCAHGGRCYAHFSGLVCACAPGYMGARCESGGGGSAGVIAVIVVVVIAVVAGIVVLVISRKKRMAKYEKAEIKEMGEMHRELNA
The test is described as above. The method, boiled down: as §1

In test [7] the target is T7, EGF6+MEMBRANE PROXIMAL PEPTIDE.
T7 construct: also called Hu DLL3 EGF6+membrane proximal peptide on HEK293 cells
T7 membrane-anchored DLL3 subdomain construct: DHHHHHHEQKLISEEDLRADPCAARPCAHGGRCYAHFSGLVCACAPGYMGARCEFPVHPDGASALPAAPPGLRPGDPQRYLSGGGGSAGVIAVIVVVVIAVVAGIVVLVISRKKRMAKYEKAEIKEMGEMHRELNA
In words: flow cytometry on HEK293 cells expressing the DLL3 subdomain construct, 1.6 nM binder, PE anti-human secondary, control: secondary antibody only. As for the experimental part: DLL3/CD3 binding proteins were produced by transient transfection of CHO-E cells with the pTT5 vectors carrying the chain-encoding genes, as described in Example 2. […] Bound molecules were detected with PE-conjugated anti-human secondary antibody (Sigma-Aldrich, #P8047). As negative control, cells were incubated with secondary antibody only.
The samples were measured by flow-cytometry. […] The sequences of the epitope domains are listed in Example 5, Table 3.

T1 sequence (chain, as listed by the source limits assumed): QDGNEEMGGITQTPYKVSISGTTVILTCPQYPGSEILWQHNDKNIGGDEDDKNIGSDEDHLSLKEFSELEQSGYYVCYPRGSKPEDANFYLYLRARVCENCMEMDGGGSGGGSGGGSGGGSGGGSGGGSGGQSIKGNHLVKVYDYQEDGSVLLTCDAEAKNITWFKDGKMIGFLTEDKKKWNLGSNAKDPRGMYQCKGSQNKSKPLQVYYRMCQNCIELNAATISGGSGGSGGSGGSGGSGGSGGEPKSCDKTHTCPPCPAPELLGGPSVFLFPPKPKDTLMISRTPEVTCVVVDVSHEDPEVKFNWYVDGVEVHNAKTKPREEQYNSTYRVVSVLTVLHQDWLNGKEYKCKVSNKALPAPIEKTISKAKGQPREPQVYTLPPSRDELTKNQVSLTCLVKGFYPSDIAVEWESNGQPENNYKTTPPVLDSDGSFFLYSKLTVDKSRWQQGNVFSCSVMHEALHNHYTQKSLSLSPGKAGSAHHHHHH

B1: DLL3#2/CD3#1 (bispecific antibody, human IgG1, kappa, lambda, L234A L235A)
chain 1: DIQMTQSPSAMSASVGDRVTITCRASQGISNYLAWFQQKPGKVPEPLIYAASSLQSGVPSRFSGSGSVTEFTLTISSLQPEDFATYYCLQHNSSPYTFGQGTKLEIKRTVAAPSVFIFPPSDEQLKSGTASVVCLLNNFYPREAKVQWKVDNALQSGNSQESVTEQDSKDSTYSLSSTLTLSKADYEKHKVYACEVTHQGLSSPVTKSFNRGECGGGGSEGKSSGSGSESKSTEGKSSGSGSESKSTGGGGSQVQLVQSGAEVKKPGASVKVSCKASGYTFTSYYMHWVRQAPGQGLEWMGIINPSGGSTSYAQKFQGRVTMTRDTSTSTVYMELSSLRSEDTAVYYCARGEAVGGNYYYYGMDVWGQGTTVTVSSASTKGPSVFPLAPSSKSTSGGTAALGCLVKDYFPEPVTVSWNSGALTSGVHTFPAVLQSSGLYSLSSVVTVPSSSLGTQTYICNVNHKPSNTKVDKRVEPKSCDKTHTCPPCPAPEAAGGPSVFLFPPKPKDTLMISRTPEVTCVVVDVSHEDPEVKFNWYVDGVEVHNAKTKPREEQYNSTYRVVSVLTVLHQDWLNGKEYKCKVSNKALPAPIEKTISKAKGQPREPQVYTLPPSREEMTKNQVSLWCLVKGFYPSDIAVEWESNGQPENNYKTTPPVLDSDGSFFLYSKLTVDKSRWQQGNVFSCSVMHEALHNHYTQKSLSLSPG
chain 2: EAVVTQEPSLTVSPGGTVTLTCRSSTGAVTTSNYANWVQEKPGQLPRGLIGGTNKRAPWVPARFSGSLLGGKAALTLSGAQPEDEAEYFCALWYSNLWVFGGGTKLTVLGQPKAAPSVTLFPPSSEELQANKATLVCLISDFYPGAVKVAWKADGSPVNTGVETTTPSKQSNNKYAASSYLSLTPEQWKSHRSYSCQVTHEGSTVEKTVAPAECSGGGGSEGKSSGSGSESKSTEGKSSGSGSESKSTGGGGSEVQLVESGGGLVQPGGSLKLSCAASGFTFNTYAMNWVRQAPGKGLEWVARIRSKYNNYATYYADSVKDRFTISRDDSKNTAYLQMNNLKTEDTAVYYCVRHGNFGNSYVSWFAYWGQGTLVTVSAASTKGPSVFPLAPSSKSTSGGTAALGCLVKDYFPEPVTVSWNSGALTSGVHTFPAVLQSSGLYSLSSVVTVPSSSLGTQTYICNVNHKPSNTKVDKRVEPKSCDKTHTCPPCPAPEAAGGPSVFLFPPKPKDTLMISRTPEVTCVVVDVSHEDPEVKFNWYVDGVEVHNAKTKPREEQYNSTYRVVSVLTVLHQDWLNGKEYKCKVSNKALPAPIEKTISKAKGQPREPQVYTLPPSREEMTKNQVSLSCAVKGFYPSDIAVEWESNGQPENNYKTTPPVLDSDGSFFLVSKLTVDKSRWQQGNVFSCSVMHEALHNRFTQKSLSLSPG
notes: Heterodimer of one DLL3 chain and one CD3 chain (scFab-Fc, knob-in-hole)
One may read the Kd as the constant that tells how readily two partners part at equilibrium. The low end stands for a tighter complex, the high end for a looser complex. As to B1, in test [1], the Kd is 3 nM. Also, the binding result in test [2] is on record as “no binding (tested: 1.6 nM)”; in test [3], “no binding (tested: 1.6 nM)”; in test [4] it was “no binding (tested: 1.6 nM)”; in test [5], “no binding (tested: 1.6 nM)”; in test [6], “no binding (tested: 1.6 nM)”; in test [7], “binds”.

B2: DLL3#3/CD3#1 (bispecific antibody, human IgG1, kappa, lambda, L234A L235A)
chain 1: DIQMTQSPSAMSASVGDRVTITCRASQGISNYLVWFQQKPGKAPKRLIYAVSSLYSGVPSRFSGSGSGTEFTLTISSLQPEDFATYYCLQHDSYPYTFGQGTKLEIKRTVAAPSVFIFPPSDEQLKSGTASVVCLLNNFYPREAKVQWKVDNALQSGNSQESVTEQDSKDSTYSLSSTLTLSKADYEKHKVYACEVTHQGLSSPVTKSFNRGECGGGGSEGKSSGSGSESKSTEGKSSGSGSESKSTGGGGSQVQLVQSGAEVKKPGASVKVSCKASGYTFTSYYVHWVRQAPGQGLEWMVIINPGGGTTSYAQKFLGRVTMTRDTSTNTVYMELKSLRSEDTAVYYCARGEAVTGNYFYYGMDVWGQGTTVTVSSASTKGPSVFPLAPSSKSTSGGTAALGCLVKDYFPEPVTVSWNSGALTSGVHTFPAVLQSSGLYSLSSVVTVPSSSLGTQTYICNVNHKPSNTKVDKRVEPKSCDKTHTCPPCPAPEAAGGPSVFLFPPKPKDTLMISRTPEVTCVVVDVSHEDPEVKFNWYVDGVEVHNAKTKPREEQYNSTYRVVSVLTVLHQDWLNGKEYKCKVSNKALPAPIEKTISKAKGQPREPQVYTLPPSREEMTKNQVSLWCLVKGFYPSDIAVEWESNGQPENNYKTTPPVLDSDGSFFLYSKLTVDKSRWQQGNVFSCSVMHEALHNHYTQKSLSLSPG
chain 2: EAVVTQEPSLTVSPGGTVTLTCRSSTGAVTTSNYANWVQEKPGQLPRGLIGGTNKRAPWVPARFSGSLLGGKAALTLSGAQPEDEAEYFCALWYSNLWVFGGGTKLTVLGQPKAAPSVTLFPPSSEELQANKATLVCLISDFYPGAVKVAWKADGSPVNTGVETTTPSKQSNNKYAASSYLSLTPEQWKSHRSYSCQVTHEGSTVEKTVAPAECSGGGGSEGKSSGSGSESKSTEGKSSGSGSESKSTGGGGSEVQLVESGGGLVQPGGSLKLSCAASGFTFNTYAMNWVRQAPGKGLEWVARIRSKYNNYATYYADSVKDRFTISRDDSKNTAYLQMNNLKTEDTAVYYCVRHGNFGNSYVSWFAYWGQGTLVTVSAASTKGPSVFPLAPSSKSTSGGTAALGCLVKDYFPEPVTVSWNSGALTSGVHTFPAVLQSSGLYSLSSVVTVPSSSLGTQTYICNVNHKPSNTKVDKRVEPKSCDKTHTCPPCPAPEAAGGPSVFLFPPKPKDTLMISRTPEVTCVVVDVSHEDPEVKFNWYVDGVEVHNAKTKPREEQYNSTYRVVSVLTVLHQDWLNGKEYKCKVSNKALPAPIEKTISKAKGQPREPQVYTLPPSREEMTKNQVSLSCAVKGFYPSDIAVEWESNGQPENNYKTTPPVLDSDGSFFLVSKLTVDKSRWQQGNVFSCSVMHEALHNRFTQKSLSLSPG
notes: as for B1
B2 came in with a Kd in test [1] of 2 nM. Moreover, the binding result in test [2] is reported as “no binding (tested: 1.6 nM)”; in test [3], “no binding (tested: 1.6 nM)”; in test [4], “no binding (tested: 1.6 nM)”; in test [5], “no binding (tested: 1.6 nM)”; in test [6], “no binding (tested: 1.6 nM)”; in test [7], “binds”.
